What was measured:
[1] = target: recombinant ScpA, residues 31-1032 (active Streptococcal C5a peptidase) (Streptococcus pyogenes) (UniProt P15926)
[2] = target: T1, ScpA_(S512A), active site serine to alanine mutant of recombinant Streptococcal C5a peptidase ScpA, residues … (Streptococcus pyogenes, UniProt P15926 31-1032, S512A); assay: SPR; His-tagged rhC5a immobilised on NTA sensor chip, ScpA_(S512A) flowed over; 25 °C; Hepes buffer with 950 mM NaCl; 1:1 Langmuir model; conditions: both partners purified
T1 construct: mimics the form released from the cell surface by SpeB; catalytic residues D130, H193, S512; also called S512A active site mutant of ScpA; source: recombinant, from plasmid pGEX ScpA_((31-1032)) mutated with QuickChange II; purified
T1 sequence: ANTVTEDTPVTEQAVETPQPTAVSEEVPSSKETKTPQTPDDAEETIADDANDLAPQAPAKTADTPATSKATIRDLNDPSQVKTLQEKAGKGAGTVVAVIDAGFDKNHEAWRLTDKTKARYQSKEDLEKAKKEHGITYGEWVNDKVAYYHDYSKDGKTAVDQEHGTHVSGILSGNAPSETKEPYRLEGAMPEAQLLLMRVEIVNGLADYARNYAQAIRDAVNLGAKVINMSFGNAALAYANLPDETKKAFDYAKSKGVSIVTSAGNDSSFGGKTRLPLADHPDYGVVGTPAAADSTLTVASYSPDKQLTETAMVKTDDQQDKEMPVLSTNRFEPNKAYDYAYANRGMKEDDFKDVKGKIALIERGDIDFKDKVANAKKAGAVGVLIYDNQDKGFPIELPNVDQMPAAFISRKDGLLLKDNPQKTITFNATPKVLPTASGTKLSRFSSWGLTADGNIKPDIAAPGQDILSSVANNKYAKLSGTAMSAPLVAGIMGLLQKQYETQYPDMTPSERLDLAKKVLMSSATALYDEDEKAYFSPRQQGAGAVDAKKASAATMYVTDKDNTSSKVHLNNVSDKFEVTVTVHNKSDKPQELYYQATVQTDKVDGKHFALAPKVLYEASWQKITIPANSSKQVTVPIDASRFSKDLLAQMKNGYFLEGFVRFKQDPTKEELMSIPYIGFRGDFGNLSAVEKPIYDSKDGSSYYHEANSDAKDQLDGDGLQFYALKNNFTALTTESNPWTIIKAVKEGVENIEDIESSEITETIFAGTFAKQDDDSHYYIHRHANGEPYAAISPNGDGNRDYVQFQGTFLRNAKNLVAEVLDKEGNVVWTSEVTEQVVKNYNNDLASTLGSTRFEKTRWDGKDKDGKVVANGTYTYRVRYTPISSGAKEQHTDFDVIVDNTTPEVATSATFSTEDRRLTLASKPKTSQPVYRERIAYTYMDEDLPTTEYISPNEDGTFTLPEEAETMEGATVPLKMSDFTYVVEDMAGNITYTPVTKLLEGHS

[3] = target: T1, ScpA_(S512A), active site serine to …; assay: SPR; His-tagged rhC5a immobilised on NTA sensor chip, ScpA_(S512A) flowed over; 25 °C; Hepes buffer with 550 mM NaCl; 1:1 Langmuir model; conditions: both partners purified
[4] = target: T1, ScpA_(S512A), active site serine to …; assay: SPR; His-tagged rhC5a immobilised on NTA sensor chip, ScpA_(S512A) flowed over; 25 °C; Hepes buffer with 350 mM NaCl; 1:1 Langmuir model; conditions: both partners purified
[5] = target: T1, ScpA_(S512A), active site serine to …; assay: ITC; ScpA_(S512A) (18 μM) in the cell titrated with 170 μM rhC5a; 25 °C; 50 mM Hepes-KOH pH 7.5, 150 mM NaCl; one set of sites model; KD^ITC derived from KA; conditions: both partners purified
[6] = target: T1, ScpA_(S512A), active site serine to …; assay: SPR; His-tagged rhC5a immobilised on NTA sensor chip, ScpA_(S512A) flowed over; 25 °C; Hepes buffer with 750 mM NaCl; 1:1 Langmuir model; conditions: both partners purified
[7] = target: T1, ScpA_(S512A), active site serine to …; assay: SPR; His-tagged C5a peptide immobilised on NTA sensor chip (30-40 RU), ScpA_(S512A) flowed over; 25 °C; 10 mM Hepes-KOH pH 7.5, 150 mM NaCl, 0.005% Tween 20, 50 μM EDTA; 1:1 Langmuir model with drifting baseline; conditions: both partners purified
[8] = target: T1, ScpA_(S512A), active site serine to …; assay: SPR; competition in solution: 40 RU HT-rhC5a_(core) immobilised on NTA chip; ScpA_(S512A) (700 nM) pre-incubated with rhC5a-HT (0-2000 nM) 1 hr on ice in SPR running buffer, then injected; Req fitted by the method of Morelock et al. to give KD^Sol; conditions: both partners purified
[9] = target: recombinant human C5a des Arg (rhC5adR), N-ter hexa-histidine tagged (human); assay: SPR; His-tagged C5a peptide immobilised on NTA sensor chip (30-40 RU), ScpA_(S512A) flowed over; 25 °C; 10 mM Hepes-KOH pH 7.5, 150 mM NaCl, 0.005% Tween 20, 50 μM EDTA; 1:1 Langmuir model with drifting baseline
[10] = target: rhC5a_(core), N-terminal cleavage product (PN) of rhC5a, residues 1-67 (human); assay: as above
[11] = target: rhC5a_(R46A) (human); assay: as above
[12] = target: rhC5a_(K4A,K5A) (human); assay: as above
[13] = target: rhC5a_(R40A) (human); assay: as above
[14] = target: rhC5a_(K49A) (human); assay: as above
[15] = target: rhC5a_(K12A,K14A) (human); assay: as above
[16] = target: rhC5a_(R37A) (human); assay: as above

“doubly BODIPY labelled His-tagged rhC5aC75 (rhC5aC75-BODIPY) (natural protein)” was tested, and the Km of cleavage of rhC5aC75-BODIPY (16-500 nM) by 180 pM ScpA, fluorescence progress curves, 25 °C, PBS with 0.1% Tween 20 [1] was 185 nM.

B1: recombinant human C5a, N-ter hexa-histidine tagged (rhC5a) (natural protein, UniProt P01031 678-751, looked up)
chain: TLQKKIEEIAAKYKHSVVKKCCYDGACVNNDETCEQRAARISLGPRCIKAFTECCVVASQLRANISHKDMQLGR
modifications: β-mercaptoethanol added to C27 in the refolding process
notes: numbers count on: the mature C5a (1-74); His-tagged form immobilised on the NTA chip in SPR; also called full length rhC5a; not shown: His6, N-terminal, kept
Work on B1 yielded a Kd [2] of 466 nM, a koff [2] of 0.0091 s⁻¹ and a kon [2] of 19500 M⁻¹ s⁻¹. It also gave a Kd [3] of 140 nM, a koff [3] of 0.0054 s⁻¹ and a kon [3] of 39200 M⁻¹ s⁻¹. The Kd [4] was 63.5 nM, the koff [4] was 0.00431 s⁻¹ and the kon [4] was 68500 M⁻¹ s⁻¹. It also gave a Kd [5] of 30.8 nM, a dH [5] of -9.4 kcal/mol and a Kd [6] of 256 nM. For the same molecule, the koff [6] was 0.00651 s⁻¹, the kon [6] was 25600 M⁻¹ s⁻¹ and the Kd [7] was 34 nM. The koff [7] was 0.0044 s⁻¹ and the kon [7] was 131000 M⁻¹ s⁻¹.

B2: His-tagless form of rhC5a (rhC5a-HT) (natural protein, human, UniProt P01031 678-751, looked up)
chain: B1 chain
modifications: β-mercaptoethanol added to C27 in the refolding process
notes: numbers count on: the mature C5a (1-74); also called rhC5a-HT(sol); tag-less form rhC5a; source: recombinant rhC5a (pProExHTb) treated with TEV protease (Sigma Merck) to remove the His tag; not shown: His6, N-terminal, cleaved
B2 gave a Kd [8] of 11.1 nM.

B3: ScpA_(S512A), active site serine to alanine mutant of recombinant Streptococcal C5a peptidase ScpA, residues 31-1032 (enzyme)
chain: T1 sequence
B3 showed a Kd [9] of 191 nM, a koff [9] of 0.0118 s⁻¹ and a kon [9] of 61700 M⁻¹ s⁻¹. For the same molecule, the Kd [10] was 240 nM, the koff [10] was 0.0085 s⁻¹ and the kon [10] was 35200 M⁻¹ s⁻¹. It also gave a Kd [11] of 162 nM, a koff [11] of 0.0178 s⁻¹ and a kon [11] of 111000 M⁻¹ s⁻¹. The Kd [12] was 32.5 nM, the koff [12] was 0.00583 s⁻¹ and the kon [12] was 180000 M⁻¹ s⁻¹. For the same molecule, the Kd [13] was 234 nM, the koff [13] was 0.0205 s⁻¹ and the kon [13] was 88000 M⁻¹ s⁻¹. The Kd [14] was 26 nM, the koff [14] was 0.005 s⁻¹ and the kon [14] was 195000 M⁻¹ s⁻¹. For the same molecule, the Kd [15] was 25.6 nM, the koff [15] was 0.00405 s⁻¹ and the kon [15] was 158000 M⁻¹ s⁻¹. It also gave a Kd [16] of 217 nM, a koff [16] of 0.0176 s⁻¹ and a kon [16] of 81200 M⁻¹ s⁻¹.
